Data published in publication PMC3360035.

Target: Wild-type human γD-crystallin (human) (UniProt P07320)
Sequence (P07320 whole entry): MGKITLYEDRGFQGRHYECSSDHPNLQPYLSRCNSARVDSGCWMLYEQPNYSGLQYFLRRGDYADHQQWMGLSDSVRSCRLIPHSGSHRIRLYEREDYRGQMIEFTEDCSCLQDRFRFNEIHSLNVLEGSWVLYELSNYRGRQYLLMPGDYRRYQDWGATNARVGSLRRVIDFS

suppression of aggregation on dilution out of 5 M GdnHCl (from maximum A350), αB in 5-fold molar excess: 72%
Substance: αB-crystallin, wild type (from UniProt P02511 1-175) (natural protein)
